pKd: −log10 of the molar value.
Legend:
[1] = molecular target: C1q in the complement system (rabbit serum as the source of complement) (rabbit); assay: cell-based or functional assay
[2] = molecular target: FcγIIIA Receptor on the effector cells (human) (UniProt P08637); assay: cell-based or functional assay
[3] = molecular target: FcRn (human Fc receptor panel, Octet) (human) (UniProt P55899); assay: BLI (Octet HTX), receptor on anti-penta-His biosensor, 1:1 model
[4] = molecular target: FcγRI (human Fc receptor panel, Octet) (human) (UniProt P12314); assay: as above
[5] = molecular target: FcγRIIA (human Fc receptor panel, Octet) (human) (UniProt P12318); assay: as above
[6] = molecular target: FcγRIIB/C (human Fc receptor panel, Octet) (human) (UniProt P31994); assay: as above
[7] = molecular target: FcγRIIIB (human Fc receptor panel, Octet) (human) (UniProt O75015); assay: as above
[8] = molecular target: FcγRIIIa 158V receptor (SPR assay) (UniProt P08637); assay: SPR, receptor amine-coupled to the chip, antibody injected, 1:1 kinetics
[9] = molecular target: FcγRIIIa 158F receptor (SPR assay) (UniProt P08637); assay: SPR, receptor amine-coupled to the chip, antibody injected, steady state affinity
[10] = molecular target: CD20 on Jeko-1, Raji and Daudi cells (human) (UniProt P11836); assay: cell-based MSD electrochemiluminescence binding assay on CD20 expressing Jeko-1 cells
[11] = molecular target: FcγRIIIa 158F receptor (SPR assay) (UniProt P08637); assay: SPR, relative to the TG-1101 reference standard
[12] = molecular target: FcγRIIIa 158V receptor (SPR assay) (UniProt P08637); assay: SPR, relative to the TG-1101 reference standard
[13] = molecular target: FcγRIIIA F158 (human Fc receptor panel, Octet) (human) (UniProt P08637); assay: BLI (Octet HTX), receptor on anti-penta-His biosensor, 1:1 model
[14] = molecular target: FcγRIIIA V158 (human Fc receptor panel, Octet) (human) (UniProt P08637); assay: as above
[15] = molecular target: HRP conjugated human C1q (human) (UniProt P02745); assay: ELISA, antibody coated on the plate, HRP conjugated human C1q
HRP conjugated human C1q (human), sequence (P02745 23-245 limits assumed, chain 1 of 3): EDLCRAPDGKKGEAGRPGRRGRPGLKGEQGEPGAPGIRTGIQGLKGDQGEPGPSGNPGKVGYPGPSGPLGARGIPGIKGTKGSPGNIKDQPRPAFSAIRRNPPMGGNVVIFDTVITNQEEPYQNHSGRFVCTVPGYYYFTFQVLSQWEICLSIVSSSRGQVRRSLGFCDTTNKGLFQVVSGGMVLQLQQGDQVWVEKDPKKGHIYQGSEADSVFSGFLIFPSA
HRP conjugated human C1q (human), sequence (P02746 28-253 limits assumed, chain 2 of 3, further chain): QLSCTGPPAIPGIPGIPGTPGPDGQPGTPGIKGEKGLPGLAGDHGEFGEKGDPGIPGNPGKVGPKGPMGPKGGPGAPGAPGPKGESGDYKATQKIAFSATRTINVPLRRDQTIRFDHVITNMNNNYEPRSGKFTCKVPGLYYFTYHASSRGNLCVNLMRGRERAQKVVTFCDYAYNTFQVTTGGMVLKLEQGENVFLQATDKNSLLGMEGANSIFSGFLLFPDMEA
HRP conjugated human C1q (human), sequence (P02747 29-245 limits assumed, chain 3 of 3, further chain): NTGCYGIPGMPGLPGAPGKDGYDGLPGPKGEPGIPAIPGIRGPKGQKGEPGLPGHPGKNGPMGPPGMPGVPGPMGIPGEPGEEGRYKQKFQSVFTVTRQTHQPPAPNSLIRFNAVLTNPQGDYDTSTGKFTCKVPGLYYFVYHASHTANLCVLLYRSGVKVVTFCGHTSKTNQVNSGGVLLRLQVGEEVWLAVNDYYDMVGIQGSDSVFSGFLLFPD

FcγRI (human Fc receptor panel, Octet) (human), sequence (P12314 16-288 limits assumed): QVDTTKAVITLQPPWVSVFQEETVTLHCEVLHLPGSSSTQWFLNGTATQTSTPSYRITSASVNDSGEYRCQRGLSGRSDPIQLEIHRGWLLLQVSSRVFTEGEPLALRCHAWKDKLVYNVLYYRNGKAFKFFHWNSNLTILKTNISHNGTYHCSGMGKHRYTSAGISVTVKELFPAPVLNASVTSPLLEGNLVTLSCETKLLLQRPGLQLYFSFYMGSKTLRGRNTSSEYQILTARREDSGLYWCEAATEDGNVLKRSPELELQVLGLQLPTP
FcγRIIIB (human Fc receptor panel, Octet) (human), sequence (O75015 17-200 limits assumed): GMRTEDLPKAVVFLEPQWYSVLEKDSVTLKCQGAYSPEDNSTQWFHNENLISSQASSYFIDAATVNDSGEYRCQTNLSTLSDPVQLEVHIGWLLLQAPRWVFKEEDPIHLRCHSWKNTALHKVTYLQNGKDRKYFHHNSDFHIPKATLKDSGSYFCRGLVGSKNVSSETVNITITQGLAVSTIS
FcγRIIA (human Fc receptor panel, Octet) (human), sequence (P12318 36-218 limits assumed): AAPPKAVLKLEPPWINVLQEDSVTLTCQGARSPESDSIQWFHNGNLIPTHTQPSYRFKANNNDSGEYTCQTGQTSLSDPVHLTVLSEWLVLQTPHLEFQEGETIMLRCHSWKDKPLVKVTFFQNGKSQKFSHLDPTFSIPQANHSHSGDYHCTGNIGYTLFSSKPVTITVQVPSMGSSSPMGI
FcγRIIB/C (human Fc receptor panel, Octet) (human), sequence (P31994 46-217 limits assumed): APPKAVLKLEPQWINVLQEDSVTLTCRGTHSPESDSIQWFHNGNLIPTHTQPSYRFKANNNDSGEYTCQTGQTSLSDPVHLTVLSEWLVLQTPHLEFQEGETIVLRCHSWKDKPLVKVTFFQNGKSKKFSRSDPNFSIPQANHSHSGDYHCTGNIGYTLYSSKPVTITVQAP
FcγRIIIa 158V receptor (SPR assay), sequence (P08637 17-208 F176V limits assumed): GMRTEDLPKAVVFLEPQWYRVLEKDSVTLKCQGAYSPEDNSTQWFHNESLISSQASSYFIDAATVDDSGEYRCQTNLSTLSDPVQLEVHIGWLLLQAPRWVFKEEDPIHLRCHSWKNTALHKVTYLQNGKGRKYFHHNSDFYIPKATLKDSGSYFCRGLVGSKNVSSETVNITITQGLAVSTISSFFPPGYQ
FcγRIIIA V158 (human Fc receptor panel, Octet) (human), sequence (P08637 17-208 F176V limits assumed): as above
FcγRIIIA F158 (human Fc receptor panel, Octet) (human), sequence (P08637 17-208 limits assumed): as the sequence (P08637 17-208 F176V limits assumed) above, with V160F counted along it
FcγRIIIa 158F receptor (SPR assay), sequence (P08637 17-208 limits assumed): as the sequence (P08637 17-208 F176V limits assumed) above, with V160F counted along it
CD20 on Jeko-1, Raji and Daudi cells (human), sequence (P11836 whole entry): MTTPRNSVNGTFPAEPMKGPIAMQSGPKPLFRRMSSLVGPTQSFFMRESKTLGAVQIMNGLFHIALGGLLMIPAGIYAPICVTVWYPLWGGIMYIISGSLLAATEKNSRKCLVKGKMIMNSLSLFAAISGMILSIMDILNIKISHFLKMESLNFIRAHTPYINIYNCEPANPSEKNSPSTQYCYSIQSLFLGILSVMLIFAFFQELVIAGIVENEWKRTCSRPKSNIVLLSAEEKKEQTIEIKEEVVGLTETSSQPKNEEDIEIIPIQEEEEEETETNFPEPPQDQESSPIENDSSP
FcγIIIA Receptor on the effector cells (human), sequence (P08637 17-254): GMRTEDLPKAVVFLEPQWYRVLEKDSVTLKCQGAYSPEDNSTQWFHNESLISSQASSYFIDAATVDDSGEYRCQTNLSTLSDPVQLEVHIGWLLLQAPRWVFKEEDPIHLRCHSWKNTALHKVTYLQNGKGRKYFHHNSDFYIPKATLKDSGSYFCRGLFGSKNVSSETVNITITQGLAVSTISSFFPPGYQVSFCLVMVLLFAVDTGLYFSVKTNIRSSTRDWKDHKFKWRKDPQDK

| CDC EC50 (Jeko-1 cells, rabbit serum complement) [1] [µg/mL] | ADCC EC50 (Raji target cells, KILR CD16a effector cells) [2] [ng/mL] | EC50 of ADCC assay Using Primary NK Cells (Raji target cells, LDH release) [2] [µg/mL] | pKd [3] | pKd [4] | pKd [5] | pKd [6] | pKd [7] | pKd [8] | pKd [9] | EC50 [10] [µg/mL] | Relative Affinity (%) [11] [%] | Relative Binding (%) [11] [%] | Relative Affinity (%) [12] [%] | Relative Binding (%) [12] [%] | pKd [13] | pKd [14] | EC50 [15] [µg/mL] | Substance |
| --- | --- | --- | --- | --- | --- | --- | --- | --- | --- | --- | --- | --- | --- | --- | --- | --- | --- | --- |
| 0.245 | 5.46 | 1390 | 7.37 | 7.82 | 6.60 | 6.68 | 6.51 | 5.92 | 5.16 | 0.133 |  |  |  |  |  |  |  | RITUXAN (rituximab) (antibody) |
|  | 0.00658 | 19 | 7.41 | 7.59 | 6.55 | 6.65 | 6.56 | 6.62 | 5.75 | 0.053 | 37.6 | 33 | 27.6 | 19.6 | 7.01 | 7.40 |  | GAZYVA (obinutuzumab) (antibody) |
| 0.353 | 0.0741 | 500 | 7.19 | 7.68 | 6.63 | 6.81 | 6.51 | 5.78 | 4.83 | 0.092 |  |  |  |  | 6.32 | 6.68 |  | ARZERRA (ofatumumab) (antibody) |
| 1.21 | 0.0608 |  | 7.21 | 7.72 | 6.20 | 6.44 | 5.68 | 5.99 | 5.17 |  |  |  |  |  | 6.23 | 6.86 | 2.9 | OCREVUS (ocrelizumab) (antibody) |

Source: patent publication US11965032
